From patent US20110098217A1 (INDIANA UNIVERSITY RESEARCH AND TECHNOLOGY, published 2011)
Like-named read-outs stand apart in the source and are kept apart here. Bridge positions count the residues as written; N and C are the ends. Square brackets hold non-standard residues; d marks the D form. Ends that are not written are not given here. Abu(4-SO3H) = N[C@@H](CCS(=O)(=O)O)C(=O)O; PhLac = O=C(O)[C@@H](O)Cc1ccccc1

Assays:
[1] = biological target: Receptor (human) (UniProt P47871); assay: receptor binding competition
Sequence of Receptor (human) (P47871 26-477): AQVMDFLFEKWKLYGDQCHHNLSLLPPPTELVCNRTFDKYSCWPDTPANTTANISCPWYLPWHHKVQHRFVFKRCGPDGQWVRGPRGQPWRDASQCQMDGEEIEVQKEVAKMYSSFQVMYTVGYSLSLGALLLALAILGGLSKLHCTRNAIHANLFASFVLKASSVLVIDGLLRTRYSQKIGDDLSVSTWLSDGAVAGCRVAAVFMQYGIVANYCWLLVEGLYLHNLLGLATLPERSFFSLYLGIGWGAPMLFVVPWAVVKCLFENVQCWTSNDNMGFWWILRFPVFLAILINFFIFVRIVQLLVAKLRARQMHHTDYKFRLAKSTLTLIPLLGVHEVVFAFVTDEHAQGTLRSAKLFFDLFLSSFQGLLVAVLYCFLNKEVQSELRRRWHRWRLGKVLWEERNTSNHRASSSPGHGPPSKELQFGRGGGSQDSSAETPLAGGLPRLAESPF

[2] = biological target: T1, human glucagon receptor (human, UniProt P47871 26-477); assay: cell-based or functional assay
T1 sequence (P47871 26-477): as above

[3] = biological target: T2, human GLP-1 receptor (human, UniProt P43220 24-463); assay: cell-based or functional assay
[4] = biological target: T1, human glucagon receptor; assay: cell-based or functional assay; remark: listed apart in the source
[5] = biological target: T2, human GLP-1 receptor; assay: cell-based or functional assay; remark: listed apart in the source
[6] = biological target: T1, human glucagon receptor; assay: cell-based or functional assay; remark: listed apart in the source
[7] = biological target: T2, human GLP-1 receptor; assay: cell-based or functional assay; remark: listed apart in the source
[8] = biological target: T1, human glucagon receptor; assay: cell-based or functional assay; remark: listed apart in the source
[9] = biological target: T2, human GLP-1 receptor; assay: cell-based or functional assay; remark: listed apart in the source
[10] = biological target: T1, human glucagon receptor; assay: SPA competition vs 125I-glucagon, receptor membranes
[11] = biological target: T1, human glucagon receptor; assay: cell-based or functional assay; remark: listed apart in the source
[12] = biological target: T1, human glucagon receptor; assay: SPA competition vs 125I-glucagon, receptor membranes; remark: listed apart in the source
[13] = biological target: T1, human glucagon receptor; assay: cell-based or functional assay; remark: listed apart in the source
[14] = biological target: T1, human glucagon receptor; assay: SPA competition vs 125I-glucagon, receptor membranes; remark: listed apart in the source

[3,4-2(F)-F6, E9]G(6-29)-NH2
IC50 [1]: 36.7 nM

[2-Nal6, E9]G(6-29)-NH2
IC50 [1]: 95.2 nM

[BMA6, E9]G(6-29)-NH2
IC50 [1]: 80.6 nM

[MCA6, E9]G(6-29)-NH2
IC50 [1]: 114 nM

[Ac-F6, E9]G(6-29)-NH2
IC50 [1]: 37.1 nM

[PhLac]TSDYSKYLDERRAQDFVEWLMKT-NH2 (lactam 19-23; not fully specified) [[PLA6, E16, E24K28(lactam)]G(6-29)]
Glucagon antagonism IC50 (inhibit 0.2-0.8 nM glucagon) [2]: 22.4 nM
GLP-1 agonism EC50 [3]: 289 nM
Glucagon IC50 [4]: 22 nM
GLP-1 EC50 [5]: 289 nM

SQGT[PhLac]TSDYSKYLDERRAKDFVQWLMDT-NH2 (lactam 15-19; also: ester (depsipeptide) bond Thr5-PLA6) [[S2Q3-O-PLA6, D9, E16K20(Lactam), D28] G(2-29)]
Glucagon antagonism IC50 (inhibit 0.8 nM glucagon) [6]: 20.9 nM
GLP-1 agonism EC50 [7]: 112 nM
Glucagon antagonism IC50 (inhibit 0.8 nM glucagon) [8]: 3.14 nM
GLP-1 agonism EC50 [9]: 45.7 nM

SQGTTSDYSKYLDSRRAQDFVQWLMNT-NH2 (His1 and Phe6 deleted; also called Cmpd) [[desHis^1, desPhe^6] Glucagon-NH2]
IC50 [10]: 130 nM
cAMP Induction EC50 [11]: 1180 nM

B1: [PLA^6, E^9]Glucagon (aa6-29 + CEX)-NH2 (peptide)
peptide: [PhLac]TSEYSKYLDSRRAQDFVQWLMNTGPSSGAPPPS-NH2
modifications: N-terminus assumed
SMILES: CSCC[C@H](NC(=O)[C@H](CC(C)C)NC(=O)[C@H](Cc1c[nH]c2ccccc12)NC(=O)[C@H](CCC(N)=O)NC(=O)[C@@H](NC(=O)[C@H](Cc1ccccc1)NC(=O)[C@H](CC(=O)O)NC(=O)[C@H](CCC(N)=O)NC(=O)[C@H](C)NC(=O)[C@H](CCCNC(=N)N)NC(=O)[C@H](CCCNC(=N)N)NC(=O)[C@H](CO)NC(=O)[C@H](CC(=O)O)NC(=O)[C@H](CC(C)C)NC(=O)[C@H](Cc1ccc(O)cc1)NC(=O)[C@H](CCCCN)NC(=O)[C@H](CO)NC(=O)[C@H](Cc1ccc(O)cc1)NC(=O)[C@H](CCC(=O)O)NC(=O)[C@H](CO)NC(=O)[C@@H](NC(=O)[C@@H](O)Cc1ccccc1)[C@@H](C)O)C(C)C)C(=O)N[C@@H](CC(N)=O)C(=O)N[C@H](C(=O)NCC(=O)N1CCC[C@H]1C(=O)N[C@@H](CO)C(=O)N[C@@H](CO)C(=O)NCC(=O)N[C@@H](C)C(=O)N1CCC[C@H]1C(=O)N1CCC[C@H]1C(=O)N1CCC[C@H]1C(=O)N[C@@H](CO)C(N)=O)[C@@H](C)O
IC50 [12]: 40.3 nM
IC50 (cAMP, inhibit 0.1 nM Glucagon) [13]: 24.8 nM

B2: [PLA6, E16, K20E24(lactam), D28]G(6-29) (peptide)
peptide: [PhLac]TSDYSKYLDERRAKDFVEWLMDT-NH2
modifications: lactam 15-19; N-terminus assumed
SMILES: CSCC[C@H](NC(=O)[C@H](CC(C)C)NC(=O)[C@H](Cc1c[nH]c2ccccc12)NC(=O)[C@@H]1CCC(=O)NCCCC[C@H](NC(=O)[C@H](C)NC(=O)[C@H](CCCNC(=N)N)NC(=O)[C@H](CCCNC(=N)N)NC(=O)[C@H](CCC(=O)O)NC(=O)[C@H](CC(=O)O)NC(=O)[C@H](CC(C)C)NC(=O)[C@H](Cc2ccc(O)cc2)NC(=O)[C@H](CCCCN)NC(=O)[C@H](CO)NC(=O)[C@H](Cc2ccc(O)cc2)NC(=O)[C@H](CC(=O)O)NC(=O)[C@H](CO)NC(=O)[C@@H](NC(=O)[C@@H](O)Cc2ccccc2)[C@@H](C)O)C(=O)N[C@@H](CC(=O)O)C(=O)N[C@@H](Cc2ccccc2)C(=O)N[C@@H](C(C)C)C(=O)N1)C(=O)N[C@@H](CC(=O)O)C(=O)N[C@H](C(N)=O)[C@@H](C)O
Glucagon antagonism IC50 (inhibit 0.2-0.8 nM glucagon) [2]: 74.4 nM
GLP-1 agonism EC50 [3]: 240 nM
Glucagon IC50 [4]: 74 nM
GLP-1 EC50 [5]: 239 nM

SQGTFTSXYSKYLDSRRAQDFVQWLMNT (homoglutamic acid (hGlu) at position 9; C-terminal amide, also called peptide no) [[hGlu^9] Glucagon(aa2-29)-NH2]
IC50 [14]: 8.1 nM

B3: [desHis^1, hCys^9(SO3-), Phe^25, Leu^27] Glucagon-NH2 (peptide)
peptide: SQGTFTS[Abu(4-SO3H)]YSKYLDSRRAQDFVQFLLNT-NH2
modifications: N-terminus assumed
SMILES: CC(C)C[C@H](NC(=O)[C@H](Cc1ccc(O)cc1)NC(=O)[C@H](CCCCN)NC(=O)[C@H](CO)NC(=O)[C@H](Cc1ccc(O)cc1)NC(=O)[C@H](CCS(=O)(=O)O)NC(=O)[C@H](CO)NC(=O)[C@@H](NC(=O)[C@H](Cc1ccccc1)NC(=O)[C@@H](NC(=O)CNC(=O)[C@H](CCC(N)=O)NC(=O)[C@@H](N)CO)[C@@H](C)O)[C@@H](C)O)C(=O)N[C@@H](CC(=O)O)C(=O)N[C@@H](CO)C(=O)N[C@@H](CCCNC(=N)N)C(=O)N[C@@H](CCCNC(=N)N)C(=O)N[C@@H](C)C(=O)N[C@@H](CCC(N)=O)C(=O)N[C@@H](CC(=O)O)C(=O)N[C@@H](Cc1ccccc1)C(=O)N[C@H](C(=O)N[C@@H](CCC(N)=O)C(=O)N[C@@H](Cc1ccccc1)C(=O)N[C@@H](CC(C)C)C(=O)N[C@@H](CC(C)C)C(=O)N[C@@H](CC(N)=O)C(=O)N[C@H](C(N)=O)[C@@H](C)O)C(C)C
notes: also called Cmpd; 4B
IC50 [10]: 13.9 nM
cAMP Induction EC50 [11]: 430 nM

AEGT[PhLac]TSDYSKYLDERRAKDFVQWLMDT-NH2 (lactam 15-19; also: PLA6 linked to Thr5 by an ester bond (depsipeptide)) [[A2E3-O-PLA6, D9, E16K20(Lactam), D28] G(2-29)]
Glucagon antagonism IC50 (inhibit 0.8 nM glucagon) [6]: 21.8 nM
GLP-1 agonism EC50 [7]: 18 nM
Glucagon antagonism IC50 (inhibit 0.8 nM glucagon) [8]: 4.68 nM
GLP-1 agonism EC50 [9]: 14 nM

HAEGT[PhLac]TSDYSKYLDERRAKDFVQWLMDT-NH2 (lactam 16-20; also: PLA6 linked to Thr5 by an ester bond (depsipeptide)) [[H1A2E3-O-PLA6, D9, E16K20(Lactam), D28] G(1-29)]
Glucagon antagonism IC50 (inhibit 0.8 nM glucagon) [8]: 9.65 nM
GLP-1 agonism EC50 [9]: 6.2 nM

SQGTFTSEYSKYLDSRRAQDFVQFLLNT-NH2 [[desHis^1, Glu^9, Phe^25, Leu^27]Glucagon-NH2]
IC50 [10]: 12.6 nM
cAMP Induction EC50 [11]: 81 nM

SQLTFTSEYSKYLDSRRAQDFVQWLMNT-NH2 (also called Cmpd) [[desHis^1, Leu^4, Glu^9] Glucagon-NH2]
IC50 [10]: 36.9 nM
cAMP Induction EC50 [11]: 318 nM
cAMP Inhibition IC50 [11]: 102 nM

B4: [desHis^1, desPhe^6, hCys^9(SO3-), Phe^25, Leu^27] Glucagon-NH2 (peptide)
peptide: SQGTTS[Abu(4-SO3H)]YSKYLDSRRAQDFVQFLLNT-NH2
modifications: N-terminus assumed
SMILES: CC(C)C[C@H](NC(=O)[C@H](Cc1ccc(O)cc1)NC(=O)[C@H](CCCCN)NC(=O)[C@H](CO)NC(=O)[C@H](Cc1ccc(O)cc1)NC(=O)[C@H](CCS(=O)(=O)O)NC(=O)[C@H](CO)NC(=O)[C@@H](NC(=O)[C@@H](NC(=O)CNC(=O)[C@H](CCC(N)=O)NC(=O)[C@@H](N)CO)[C@@H](C)O)[C@@H](C)O)C(=O)N[C@@H](CC(=O)O)C(=O)N[C@@H](CO)C(=O)N[C@@H](CCCNC(=N)N)C(=O)N[C@@H](CCCNC(=N)N)C(=O)N[C@@H](C)C(=O)N[C@@H](CCC(N)=O)C(=O)N[C@@H](CC(=O)O)C(=O)N[C@@H](Cc1ccccc1)C(=O)N[C@H](C(=O)N[C@@H](CCC(N)=O)C(=O)N[C@@H](Cc1ccccc1)C(=O)N[C@@H](CC(C)C)C(=O)N[C@@H](CC(C)C)C(=O)N[C@@H](CC(N)=O)C(=O)N[C@H](C(N)=O)[C@@H](C)O)C(C)C
notes: His1 and Phe6 deleted; also called Cmpd; 5B
IC50 [10]: 53.3 nM
cAMP Induction EC50 [11]: 3210 nM
cAMP Inhibition IC50 [11]: 9220 nM

B5: [PLA6, E16K20(lactam), E21, D28] G(6-29) (peptide)
peptide: [PhLac]TSDYSKYLDERRAKEFVQWLMDT-NH2
modifications: lactam 11-15; N-terminus assumed
SMILES: CSCC[C@H](NC(=O)[C@H](CC(C)C)NC(=O)[C@H](Cc1c[nH]c2ccccc12)NC(=O)[C@H](CCC(N)=O)NC(=O)[C@@H](NC(=O)[C@H](Cc1ccccc1)NC(=O)[C@H](CCC(=O)O)NC(=O)[C@@H]1CCCCNC(=O)CC[C@H](NC(=O)[C@H](CC(=O)O)NC(=O)[C@H](CC(C)C)NC(=O)[C@H](Cc2ccc(O)cc2)NC(=O)[C@H](CCCCN)NC(=O)[C@H](CO)NC(=O)[C@H](Cc2ccc(O)cc2)NC(=O)[C@H](CC(=O)O)NC(=O)[C@H](CO)NC(=O)[C@@H](NC(=O)[C@@H](O)Cc2ccccc2)[C@@H](C)O)C(=O)N[C@@H](CCCNC(=N)N)C(=O)N[C@@H](CCCNC(=N)N)C(=O)N[C@@H](C)C(=O)N1)C(C)C)C(=O)N[C@@H](CC(=O)O)C(=O)N[C@H](C(N)=O)[C@@H](C)O
Glucagon antagonism IC50 (inhibit 0.2-0.8 nM glucagon) [2]: 8.6 nM
GLP-1 agonism EC50 [3]: 11.1 nM
